Measurements: patent publication US20100311669A1
Positions of bridges follow the written chain, without caps; N, C: chain ends. No end group written: not given here.

Molecular target: Recombinant purified HER2 receptor composed of the ectodomain of HER2 fused to the Fc of human IgG (human) (UniProt P04626)
Assay: SPR (Biacore 3000), HER2-Fc immobilized, peptide as analyte, 25 C

Question: With FCGDGFYACYMDV-OH (disulfide 2-9) [AHNP analogue 8, …-OH (cyclic)] as the binder, how does the Kd read?
Answer: 760 nM

Question: What about the koff of the same binder?
Answer: 0.000701 s⁻¹

Question: And the kon?
Answer: 922 M⁻¹ s⁻¹
